The experiment concerns the target surface-immobilized biotinylated microtubules (pig, UniProt Q2XVP4 1-451; Q767L7 1-444, biotin (site not stated) | biotin (site not stated)).

surface-immobilized biotinylated microtubules, sequence (Q2XVP4 whole entry, chain 1 of 2): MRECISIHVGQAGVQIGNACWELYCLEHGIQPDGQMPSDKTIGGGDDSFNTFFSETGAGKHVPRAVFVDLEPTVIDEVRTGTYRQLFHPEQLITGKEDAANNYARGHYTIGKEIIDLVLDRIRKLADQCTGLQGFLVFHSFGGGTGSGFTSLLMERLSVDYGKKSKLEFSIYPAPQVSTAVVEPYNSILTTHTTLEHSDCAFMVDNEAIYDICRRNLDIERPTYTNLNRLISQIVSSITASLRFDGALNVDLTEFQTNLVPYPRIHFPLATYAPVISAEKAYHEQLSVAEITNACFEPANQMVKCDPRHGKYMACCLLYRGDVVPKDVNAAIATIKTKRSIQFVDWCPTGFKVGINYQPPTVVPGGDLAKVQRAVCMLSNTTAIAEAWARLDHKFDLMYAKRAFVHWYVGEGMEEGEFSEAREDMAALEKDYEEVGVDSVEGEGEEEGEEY
surface-immobilized biotinylated microtubules, sequence (Q767L7 other isoform, or with tags, fused parts or gaps, chain 2 of 2): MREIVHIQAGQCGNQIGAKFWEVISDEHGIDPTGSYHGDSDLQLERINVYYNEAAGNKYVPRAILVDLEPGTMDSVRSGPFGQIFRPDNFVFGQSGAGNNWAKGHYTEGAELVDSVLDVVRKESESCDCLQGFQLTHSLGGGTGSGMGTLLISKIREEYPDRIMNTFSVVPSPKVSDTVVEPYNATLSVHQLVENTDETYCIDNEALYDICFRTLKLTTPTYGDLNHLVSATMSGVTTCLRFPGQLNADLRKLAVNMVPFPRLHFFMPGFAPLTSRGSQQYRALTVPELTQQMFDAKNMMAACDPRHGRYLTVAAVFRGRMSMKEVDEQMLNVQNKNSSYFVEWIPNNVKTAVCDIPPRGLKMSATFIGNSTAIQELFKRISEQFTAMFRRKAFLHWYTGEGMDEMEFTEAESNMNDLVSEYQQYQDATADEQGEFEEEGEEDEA

B1: MAP9-MTBD (Human MAP9 (302–647)::GFP::strepII) (domain or fragment)
chain: SKESQVTADDLEEEKAKAELIMDDDRTVDPLLSKSQSILISTSATASSKKTIEDRNIKNKKSTNNRASSASARLMTSEFLKKSSSKRRTPSTTTSSHYLGTLKVLDQKPSQKQSIEPDRADNIRAAVYQEWLEKKNVYLHEMHRIKRIESENLRIQNEQKKAAKREEALASFEAWKAMKEKEAKKIAAKKRLEEKNKKKTEEENAARKGEALQAFEKWKEKKMEYLKEKNRKEREYERAKKQKEEETVAEKKKDNLTAVEKWNEKKEAFFKQKEKEKINEKRKEELKRAEKKDKDKQAINEYEKWLENKEKQERIERKQKKRHSFLESEALPPWSPPSRTVFAKVF
For B1, binding was characterised by a dissociation constant (Kd) of 43 nM.

(Values after article doi:10.1101/2025.11.17.688911 (2025).)
